The nanobody polyreactivity screen of Harvey et al. (2022)

assay: yeast display, Sf9 membrane polyspecificity reagent, FACS + sequencing; frameworks hold sequencing errors
In short: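 Galactose-induced (36–48 hours) yeast carrying a synthetic nanobody display library were exposed to 10% biotinylated, detergent-solubilized Sf9 membrane reagent at 4 °C for 1 hour. FACS followed streptavidin microbead enrichment, using low and high (top ~1%) gates for expression (anti-HA) and reagent binding (streptavidin). Colony PCR, MiSeq 2 × 250 sequencing and CDR-length filtering followed. Labels for polyreactivity reflect the gate of origin.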

Sequence | polyreactivity (PSR sort gate)
QVQLVESGGGLVQAGGSLRLSCAASGIIFDGYAMGWYRQAPGKEREFVAGITWSGGSTYYADSVKGRFTISRDNAKNTVYLQMNSLKPEDTSVYYCAAKYYWYYSYSGIPLFDYWGQGTQVTVSS | low polyreactivity
QVQLVESGGGLVQAGGSLRLSCAASGIIFDGYAMGWYRQAPGKEREFVAVISSSGGTTYYADSVKGRFTISRDNAKNTVYLQMNSLKPEDTAVYYCATLRYSPGWYTRDDYWGQGTQVTVSS | low polyreactivity
QVQLVESGGGLVQAGGSLRLSCAASGIIFDSYALGWYRQAPGKERELVAAITSRGGRTYYAVSVKGRFTISRDNAKNTVYLQMNSLKPEDTAVYYCAARAKYDRRTDGTSGYDYWGQGTQVTVSS | low polyreactivity
QVQLVESGGGLVQAGGSLRLSCAASGIIFDSYAMGWYRQAPGKERELVAAITSDSGRTYYADSVKGRFTISRDNAKKTVYLQMNSLKPEDTAVYYCAKRWDGPYDYWGQGTQVTVSS | low polyreactivity
QVQLVESGGGLVQAGGSLRLSCAASGIIFDSYAMGWYRQAPGKERELVAAITSDSGRTYYADSVKGRFTISRDNAKNTVYLHMNSLKPEDTAVYYCNADAYTYPTARYYWGQGTQVTVSS | low polyreactivity
QVQLVESGGGLVQAGGSLRLSCAASGIIFDSYAMGWYRQAPGKERELVAAITSRGGRTYYADSVKGRFTISRDNAKNTVSLQMNSLKPEDTAVYYCAARAKYDRRTDGTSGYDYWGQGTQVTVSS | low polyreactivity
QVQLVESGGGLVQAGGSLRLSCAASGIIFDSYTMGWYRQAPGKERELVAGISGSGGSTDYADSVKGRFTISRDNAKNTFYLQMNSLKPEDTAVYYCAARPTPYRDDADEYWGQGTQVTVSS | low polyreactivity
QVQLVESGGGLVQAGGSLRLSCAASGIIFDYNAMGWYRQAPGKERELVAAITWSGSSTFYADSVKGRFTISHDNAKNTVYLLMNSLKPEDTAVYYCNAEYYWGTYANFDYWGQGTQVTVSS | low polyreactivity
QVQLVESGGGLVQAGGSLRLSCAASGIIFEGNVMGWYRQAPGKERELVAAITSDTSTNYADSVKGRFTISRDNAKNTVYLQMNSLKPEDTAVYYCNAVIGTDYYYSGTAEFYYWGQGTQVTVSS | low polyreactivity
QVQLVESGGGLVQAGGSLRLSCAASGIIFEGYAMGWYRQAPGKERELVAAISQSGGSTRYADSVKGRFTISRDNAKNTVYLQMNSLKPEDTAVYYCAARYILWDGDSWTEFDYWGQGTQVTVSS | low polyreactivity
QVQLVESGGGLVQAGGSLRLSCAASGIIFENYAMGWYRQAPGKERELVAAITIGGSTYYADSVKGRFTISRDNAKNTVYLQMNSLKPEDTAVYYCAARSGAQRGGGYWGQGTQVTVSS | high polyreactivity
QVQLVESGGGLVQAGGSLRLSCAASGIIFEYYAMGWYRQAPGKERELVAAISKRGGSTYYADSVKGRFTISRDNAKNTVYLQMNSLKPEDTAVYYCNARRRYYSGPVYLHYRVNYWGQGTQVTVSS | high polyreactivity
QVQLVESGGGLVQAGGSLRLSCAASGIIFEYYAMGWYRQAPGKERELVAAITRGGSTYYADSVKGRFTISRDNAKNTVYLQMNSLKAEDTAVYYCAADRYYYEYDYWGQGTQVTVSS | low polyreactivity
QVQLVESGGGLVQAGGSLRLSCAASGIIFFANAMGWYRQAPGKERELVASISASGGNTYYADSVKGRFTISRDNAKNTVYLQMNSLKPEDTAVYYCAARARRSQSISLKYYYWGQGTQVTVSS | high polyreactivity
QVQLVESGGGLVQAGGSLRLSCAASGIIFFDYAMGWYRQAPGKDRELVAAISSGGGNTYYADSVKGRFTISRDNAKNTVYLQMNSLKPEDSAVYYCAAEPYIYGEQGAYDYWGQGTQVTVSS | low polyreactivity
QVQLVESGGGLVQAGGSLRLSCAASGIIFFKNAMGWYRQAPGKERELVAAISSTDTRTYYADSVKGRFTISRDNAKNTVYLQMNSLKPEDTAVYYCAASRRGGGLDYWGQGTQVTVSS | high polyreactivity
QVQLVESGGGLVQAGGSLRLSCAASGIIFFNNVMGWYRQAPGKERVLVAGITYTGGSTYYADSVKGRFTISRDNAKNTVYLHMNSLKPEDTAVYNCNKDYANTRRVTEYDYWGQGTQVTVSS | low polyreactivity
